Experimental data from doi:10.1101/2021.12.31.474618.

Target: OsCBMIP-His (OsRMC-His), secreted from rice suspension-cultured cells (rice)
Experiment: BLI

MoCel6A as used for binding kinetics (BLItz) (enzyme)
Kd: 21.9 nM | koff: 0.000845 s⁻¹ | kon: 38900 M⁻¹ s⁻¹
